Consider five molecules from PMC10333598.

Broadly, the Kd is a measure of binding affinity in units of concentration. By stoichiometry N is commonly meant a count of units in the complex or per binding partner. The koff is a measure of how fast the partners let go of each other. Higher therefore signals a short-lived complex.

One assay addresses Bcl-xL (Homo sapiens) (UniProt Q07817). Put plainly: ITC. Conditions: cited from earlier work.
For another assay, the target named is Mcl-1 (Homo sapiens) (UniProt Q07820). To be noted: cited from earlier work.
Assay [1] has as its target human Mcl-1 ΔPESTΔTM (human). Put plainly: SEC + other: SAXS; equimolar mix of TCTP and Mcl-1 (500 μM each), 2 h incubation, Superdex 200 10/300 in line with SAXS; 50 mM CHES pH 9, 50 mM NaCl, 2 mM TCEP; 37 °C (308 K in the legend).
In assay [2] the target is human Mcl-1 ΔPESTΔTM (human). Kind of assay: NMR competition (15N SOFAST-HMQC); 15N-Mcl-1 with an excess (5 eq. total) of an equimolar mix of TCTPBH3, TCTPBH3D16I and MuleBH3, 2 h at room temperature; populations from intensities of seven reporter residues; 950 MHz, 298 K, 50 mM MES pH 6.5, 50 mM EPPS, 50 mM NaCl, 2 mM TCEP.
Assay [3] has as its target human Mcl-1 ΔPESTΔTM (human). Put plainly: NMR titration; 15N SOFAST-HMQC of 15N-Mcl-1 (100 μM) with unlabeled BH3 peptide added (TCTPBH3 0-500 μM, up to 5 eq.; TCTPBH3D16I and MuleBH3 up to 3 eq.); 950 MHz, 308 K, 50 mM MES pH 6.5, 50 mM EPPS, 50 mM NaCl, 2 mM TCEP; KD and koff from TITAN 2D line shape analysis, two-state model.

UniProt Q07817, sequence (Q07817 whole entry): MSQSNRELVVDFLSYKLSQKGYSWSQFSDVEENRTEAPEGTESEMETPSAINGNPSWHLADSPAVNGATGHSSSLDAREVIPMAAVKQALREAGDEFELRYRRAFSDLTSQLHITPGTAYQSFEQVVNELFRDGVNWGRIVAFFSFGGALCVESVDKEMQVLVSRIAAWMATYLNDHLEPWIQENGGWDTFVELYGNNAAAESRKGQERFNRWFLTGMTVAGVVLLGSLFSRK
UniProt Q07820, sequence (Q07820 whole entry): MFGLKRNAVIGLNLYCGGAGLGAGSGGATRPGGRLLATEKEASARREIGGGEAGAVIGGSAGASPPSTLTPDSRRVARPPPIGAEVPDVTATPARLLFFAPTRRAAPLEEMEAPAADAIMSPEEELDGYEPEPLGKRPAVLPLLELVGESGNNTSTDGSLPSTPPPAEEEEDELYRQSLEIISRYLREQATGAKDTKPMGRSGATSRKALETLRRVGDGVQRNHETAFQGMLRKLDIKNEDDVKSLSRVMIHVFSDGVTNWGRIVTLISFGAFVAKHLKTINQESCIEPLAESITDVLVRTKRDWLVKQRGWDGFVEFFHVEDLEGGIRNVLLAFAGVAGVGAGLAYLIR

As to TCTP BH3 (from UniProt P13693), the Kd with Bcl-xL (Homo sapiens) was 12 µM.
Consider Mule BH3 (from UniProt Q7Z6Z7), for which the Kd with Mcl-1 (Homo sapiens) is 0.029 µM.

B1: full-length human TCTP (FL-TCTP) (natural protein)
chain: MIIYRDLISHDEMFSDIYKIREIADGLCLEVEGKMVSRTEGNIDDSLIGGNASAEGPEGEGTESTVITGVDIVMNHHLQETSFTKEAYKKYIKDYMKSIKGKLEEQRPERVKPFMTGAAEQIKHILANFKNYQFFIGENMNPDGMVALLDYREDGVTPYMIFFKDGLEMEKC
For the molecule B1, the stoichiometry N in assay [1] was determined as 1.

B2: TCTP BH3-like peptide (TCTPBH3) (peptide)
peptide: DEMFSDIYKIREIADGLCLEVE
As to B2, in assay [2], the fold weaker affinity than TCTPBH3D16I and MuleBH3 worked out at 10 fold. Moreover, in assay [3], the Kd stood at 7.9 µM and the koff turned out to be 56 s⁻¹.

B3: TCTP BH3-like peptide D16I mutant (TCTPBH3D16I) (peptide)
peptide: DEMFSIIYKIREIADGLCLEVE
B3: the relative population of Mcl-1 bound (in the mix of three peptides) in assay [2] was 45%.
